Test results published in paper PMC2613339.

Target: protein phosphatase-1 alpha catalytic subunit (recombinant PP1α) (UniProt P62139)
Chain of UniProt P62139 (P62139 whole entry): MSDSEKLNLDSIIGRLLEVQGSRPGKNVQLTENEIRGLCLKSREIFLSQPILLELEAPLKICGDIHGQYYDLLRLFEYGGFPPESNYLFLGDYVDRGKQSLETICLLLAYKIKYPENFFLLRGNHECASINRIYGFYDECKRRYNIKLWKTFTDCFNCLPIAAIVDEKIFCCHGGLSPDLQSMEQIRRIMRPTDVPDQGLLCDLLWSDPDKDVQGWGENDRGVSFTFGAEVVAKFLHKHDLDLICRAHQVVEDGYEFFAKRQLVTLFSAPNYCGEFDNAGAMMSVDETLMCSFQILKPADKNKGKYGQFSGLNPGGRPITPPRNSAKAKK

fold increase in IC50 of inhibition of PP1 activity, against Inh3(1–64): 3.5 fold
Binder: MAEAGAGLSETVTETTVTVTTEPENRSLTIKLRKRKPEKKVEWTSDT (domain or fragment) [Inh3(1–47)]
